Measured values published in publication doi:10.1101/2023.06.19.545627v1, “Pharmacokinetic profile of the synthetic mu-opioid receptor agonist [Lys7]Dermorphin-IRDye®800CW and its feasibility as a biomarker for opioid use disorder” (bioRxiv, 2023).

Experiments:
[1] = Plasma pharmacokinetics by direct carotid artery fluorescence imaging after intravenous injection; conditions: for Distribution rate, b / Elimination rate, d: biexponential fit; for Distribution rate, b / Elimination rate, d / Distribution (α) half-life / Elimination (β) half-life: value (95% CI); for Plasma half-life (time in which the concentration of dye is 50% of initial) / Distribution (α) half-life / Elimination (β) half-life: IV; for Distribution (α) half-life / Elimination (β) half-life: biexponential
MOR = MOR (Mus musculus, UniProt P42866); test: Whole body biodistribution by cryo-macrotome fluorescence imaging, wildtype vs MOR knockout; conditions: 1 hour after IV injection
Sequence of MOR (P42866 whole entry, looked up): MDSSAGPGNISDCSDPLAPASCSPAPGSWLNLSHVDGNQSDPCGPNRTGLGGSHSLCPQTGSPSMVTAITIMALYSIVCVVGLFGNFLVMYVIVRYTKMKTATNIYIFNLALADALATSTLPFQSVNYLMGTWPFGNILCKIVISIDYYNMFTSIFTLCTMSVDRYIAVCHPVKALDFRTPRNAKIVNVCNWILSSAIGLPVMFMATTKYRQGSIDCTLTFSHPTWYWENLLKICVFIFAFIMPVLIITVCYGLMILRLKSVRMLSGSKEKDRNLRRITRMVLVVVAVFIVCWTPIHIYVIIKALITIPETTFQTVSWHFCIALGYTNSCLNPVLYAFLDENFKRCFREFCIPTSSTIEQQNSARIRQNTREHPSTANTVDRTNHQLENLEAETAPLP

[2] = system: CHO-K1 cells expressing MOR; test: Wide field fluorescence microscopy of DRM-800 binding and internalization; format: cell-based, Chinese hamster
Description: Cells were visualized using a Zeiss LSM 800 inverted microscope with a Generation III 750 nm laser light source (Lumencor, Inc., Beaverton, OR) and a Zeiss Plan-Apochromat 20×/0.8 M27 objective lens. The filters used for imaging DRM-800 were 740 nm for excitation, 770 nm dichroic and 780 nm longpass for emission (Filter Set 49037, Chroma Technology Corp., Bellows Falls, VT). Acquisition of micrographs was accomplished using a digital CMOS Camera (C114400-22CU, Hamamatsu Photonics K.K.) with a 2×2 pixel binning. Images were processed in ImageJ FIJI, windowed and leveled identically across samples, and then adjusted step-wise until cells are visible, with each image being shown for transparency.
Wide field fluorescence microscopy (Fig. 3) was used to study the binding and internalization of DRM-800 to stably expressed MORs in the membrane of transfected CHO-K1 cells.

[3] = rate constants did not differ between groups (wildtype and MOR-knockout mice), 1 nmol IV coinjection with DRM-800
[4] = MOR-knockout mice, n = 4, 1 nmol IV tail vein coinjection with IRDye700DX
[5] = wildtype mice, n = 4, 1 nmol IV tail vein coinjection with IRDye700DX, imaged 1 hour

## IRDye®700DX [IRD700, reference compound]
[1]; [3]
  Distribution rate, b: 0.42 (0.36 - 0.47) min^−1
  Elimination rate, d: 0.054 (0.051 - 0.057) min^−1

## C[C@@H](NC(=O)[C@@H](N)Cc1ccc(O)cc1)C(=O)N[C@@H](Cc1ccccc1)C(=O)NCC(=O)N[C@@H](Cc1ccc(O)cc1)C(=O)N1CCC[C@H]1C(=O)N[C@@H](CCCCN)C(=O)N[C@@H](CSC1CC(=O)N(CCNC(=O)CCCCC[N+]2=C(/C=C/C3=C(Oc4ccc(S(=O)(=O)O)cc4)C(=C/C=C4/N(CCCCS(=O)(=O)O)c5ccc(S(=O)(=O)O)cc5C4(C)C)/CCC3)C(C)(C)c3cc(S(=O)(=O)[O-])ccc32)C1=O)C(N)=O (stereo partly drawn) [DRM-800, IRDye®800CW-labelled YdAFGYPKC-NH2]
MOR; cryo-macrotome ROI analysis
  Fluorescence in small and large intestine, wildtype compared with knockout: elevated levels of DRM-800 compared with knockout mice
  Ratio of average fluorescence wildtype vs knockout, dorsal root ganglion: 1.8 ± 0.05
  Ratio of average fluorescence wildtype vs knockout, left spiral ganglion: 2.2 ± 0.2
  Ratio of average fluorescence wildtype vs knockout, right spiral ganglion: 2.9 ± 0.3
  Ratio of average fluorescence wildtype vs knockout, trigeminal ganglion: 3.1 ± 0.2
MOR; either group of mice (wildtype, knockout)
  Fluorescence signal in brain: did not observe any appreciable signal
[2]; 2 nM and 25 nM, 35°C, 30 min of incubation, no sucrose
  Binding and internalization seen by fluorescence microscopy: plasma membrane fluorescence as well as fluorescent puncta of high intensity in the perinuclear region of the cytoplasm were observable
[2]; 4C with addition of sucrose (0.35 M)
  Binding and internalization seen by fluorescence microscopy with internalization inhibited: fluorescence was distinctly observed at the plasma membrane and intracellular puncta was greatly reduced
[1]; MOR knockout mice
  Plasma half-life (time in which the concentration of dye is 50% of initial): 12.6 min
  Distribution (α) half-life: 6.2 (4.9 - 8.6) min
  Elimination (β) half-life: 45 (33–68) min
[1]; [4]
  Distribution rate, b: 0.11 (0.08-0.14) min^−1
  Elimination rate, d: 0.0155 (0.0102 - 0.0202) min^−1
[1]; mice (abstract summary over wildtype and knockout)
  Plasma half-life following intravenous injection: 8 to 12 min
[1]; wildtype mice
  Plasma half-life (time in which the concentration of dye is 50% of initial): 7.95 min
  Distribution (α) half-life: 3.3 (3.1-3.5) min
  Elimination (β) half-life: 70.8 (67.2 - 74.8) min
[1]; [5]
  Distribution rate, b: 0.211 (0.197 - 0.224) min^-1
  Elimination rate, d: 0.0097 (0.0093 - 0.0103) min^-1
